Measured values as given in the supplement of paper PMC11246515.
± gives the standard deviation of the averaged measurements.

Assay: total protein half-life in vivo (active degradation + dilution); higher = more stable protein
[1] = E. coli NCM3722 delta-clpP delta-lon delta-hslV, growth: N-lim chemostat, doubling time 6 h
[2] = E. coli NCM3722 delta-clpP, growth: N-lim chemostat, doubling time 6 h
[3] = E. coli NCM3722 delta-hslV, growth: N-lim chemostat, doubling time 6 h
[4] = E. coli NCM3722 delta-lon, growth: N-lim chemostat, doubling time 6 h
[5] = E. coli NCM3722 delta-smpB, growth: N-lim chemostat, doubling time 6 h
[6] = wild type E. coli NCM3722, growth: C-lim chemostat, doubling time 3 h
[7] = wild type E. coli NCM3722, growth: C-lim chemostat, doubling time 6 h
[8] = wild type E. coli NCM3722, growth: C-lim chemostat, doubling time 12 h
[9] = wild type E. coli NCM3722, growth: N-lim chemostat, doubling time 6 h
[10] = wild type E. coli NCM3722, growth: P-lim chemostat, doubling time 6 h
[11] = wild type E. coli NCM3722, growth: N-lim chemostat, doubling time 12 h
[12] = wild type E. coli NCM3722, growth: P-lim chemostat, doubling time 12 h

Sequence	total protein half-life in vivo [1] [h]	total protein half-life in vivo [2] [h]	total protein half-life in vivo [3] [h]	total protein half-life in vivo [4] [h]	total protein half-life in vivo [5] [h]	total protein half-life in vivo [6] [h]	total protein half-life in vivo [7] [h]	total protein half-life in vivo [8] [h]	total protein half-life in vivo [9] [h]	total protein half-life in vivo [10] [h]	total protein half-life in vivo [11] [h]	total protein half-life in vivo [12] [h]
MKTLFSRLITVIACFFIFSAAWFCLWSISLHLVERPDMAVLLFPFGLRLGLMLQCPRGYWPVLLGAEWLLIYWLTQAVGLTHFPLLMIGSLLTLLPVALISRYRHQRDWRTLLLQGAALTAAALLQSLPWLWHGKESWNALLLTLTGGLTLAPICLVFWHYLANNTWLPLGPSLVSQPINWRGRHLVWYLLLFVISLWLQLGLPDELSRFTPFCLALPIIALAWHYGWQGALIATLMNAIALIASQTWRDHPVDLLLSLLVQSLTGLLLGAGIQRLRELNQSLQKELARNQHLAERLLETEESVRRDVARELHDDIGQTITAIRTQAGIVQRLAADNASVKQSGQLIEQLSLGVYDAVRRLLGRLRPRQLDDLTLEQAIRSLMREMELEGRGIVSHLEWRIDESALSENQRVTLFRVCQEGLNNIVKHADASAVTLQGWQQDERLMLVIEDDGSGLPPGSGQQGFGLTGMRERVTALGGTLHISCLHGTRVSVSLPQRYV	5.18 ± 1.4	5.44 ± 0.69	6.91	6.14 ± 0.34	5.72 ± 0.14	2.75 ± 0.13	4.79 ± 0.62	10 ± 2.2	6.09 ± 0.24	6.19		
MSEFDAQRVAERIDIVLDILVAGDYHSAIHNLEILKAELLRQVAESTPDIPKAPWEI [A5A614]	> 8				2.71		3.77 ± 0.23			3.58		
MESIEQQLTELRTTLRHHEYLYHVMDAPEIPDAEYDRLMRELRELETKHPELITPDSPTQRVGAAPLAAFSQIRHEVPMLSLDNVFDEESFLAFNKRVQDRLKNNEKVTWCCELKLDGLAVSILYENGVLVSAATRGDGTTGEDITSNVRTIRAIPLKLHGENIPARLEVRGEVFLPQAGFEKINEDARRTGGKVFANPRNAAAGSLRQLDPRITAKRPLTFFCYGVGVLEGGELPDTHLGRLLQFKKWGLPVSDRVTLCESAEEVLAFYHKVEEDRPTLGFDIDGVVIKVNSLAQQEQLGFVARAPRWAVAFKFPAQEQMTFVRDVEFQVGRTGAITPVARLEPVHVAGVLVSNATLHNADEIERLGLRIGDKVVIRRAGDVIPQVVNVVLSERPEDTREVVFPTHCPVCGSDVERVEGEAVARCTGGLICGAQRKESLKHFVSRRAMDVDGMGDKIIDQLVEKEYVHTPADLFKLTAGKLTGLERMGPKSAQNVVNALEKAKETTFARFLYALGIREVGEATAAGLAAYFGTLEALEAASIEELQKVPDVGIVVASHVHNFFAEESNRNVISELLAEGVHWPAPIVINAEEIDSPFAGKTVVLTGSLSQMSRDDAKARLVELGAKVAGSVSKKTDLVIAGEAAGSKLAKAQELGIEVIDEAEMLRLLGS	6.33 ± 0.46	5.67 ± 0.88	5 ± 0.61	5.11 ± 0.22	4.28 ± 0.047	2.8 ± 0.23	5.68 ± 1.1	9.65 ± 0.5	4.64 ± 0.15	4.92 ± 0.57	8.04 ± 0.3	8.66 ± 0.66
MTPHVMKRDGCKVPFKSERIKEAILRAAKAAEVDDADYCATVAAVVSEQMQGRNQVDINEIQTAVENQLMSGPYKQLARAYIEYRHDRDIEREKRGRLNQEIRGLVEQTNASLLNENANKDSKVIPTQRDLLAGIVAKHYARQHLLPRDVVQAHERGDIHYHDLDYSPFFPMFNCMLIDLKGMLTQGFKMGNAEIEPPKSISTATAVTAQIIAQVASHIYGGTTINRIDEVLAPFVTASYNKHRKTAEEWNIPDAEGYANSRTIKECYDAFQSLEYEVNTLHTANGQTPFVTFGFGLGTSWESRLIQESILRNRIAGLGKNRKTAVFPKLVFAIRDGLNHKKGDPNYDIKQLALECASKRMYPDILNYDQVVKVTGSFKTPMGCRSFLGVWENENGEQIHDGRNNLGVISLNLPRIALEAKGDEATFWKLLDERLVLARKALMTRIARLEGVKARVAPILYMEGACGVRLNADDDVSEIFKNGRASISLGYIGIHETINALFGGEHVYDNEQLRAKGIAIVERLRQAVDQWKEETGYGFSLYSTPSENLCDRFCRLDTAEFGVVPGVTDKGYYTNSFHLDVEKKVNPYDKIDFEAPYPPLANGGFICYGEYPNIQHNLKALEDVWDYSYQHVPYYGTNTPIDECYECGFTGEFECTSKGFTCPKCGNHDASRVSVTRRVCGYLGSPDARPFNAGKQEEVKRRVKHLGNGQIG	2.17 ± 0.33	1.045 ± 0.0046	0.844 ± 0.15	1.02 ± 0.11	0.762 ± 0.051	2.63 ± 0.5	2 ± 0.24	2.72 ± 0.57	1.67 ± 0.91	2.99 ± 0.31	1.49 ± 0.42	4.91 ± 0.075
MQNKLASGARLGRQALLFPLCLVLYEFSTYIGNDMIQPGMLAVVEQYQAGIDWVPTSMTAYLAGGMFLQWLLGPLSDRIGRRPVMLAGVVWFIVTCLAILLAQNIEQFTLLRFLQGISLCFIGAVGYAAIQESFEEAVCIKITALMANVALIAPLLGPLVGAAWIHVLPWEGMFVLFAALAAISFFGLQRAMPETATRIGEKLSLKELGRDYKLVLKNGRFVAGALALGFVSLPLLAWIAQSPIIIITGEQLSSYEYGLLQVPIFGALIAGNLLLARLTSRRTVRSLIIMGGWPIMIGLLVAAAATVISSHAYLWMTAGLSIYAFGIGLANAGLVRLTLFASDMSKGTVSAAMGMLQMLIFTVGIEISKHAWLNGGNGLFNLFNLVNGILWLSLMVIFLKDKQMGNSHEG [P0AEY8]						3.11				5.65 ± 0.22		11 ± 2.6
MSNLSPDFVLPENFCANPQEAWTIPARFYTDQNAFEHEKENVFAKSWICVAHSSELANANDYVTREIIGESIVLVRGRDKVLRAFYNVCPHRGHQLLSGEGKAKNVITCPYHAWAFKLDGNLAHARNCENVANFDSDKAQLVPVRLEEYAGFVFINMDPNATSVEDQLPGLGAKVLEACPEVHDLKLAARFTTRTPANWKNIVDNYLECYHCGPAHPGFSDSVQVDRYWHTMHGNWTLQYGFAKPSEQSFKFEEGTDAAFHGFWLWPCTMLNVTPIKGMMTVIYEFPVDSETTLQNYDIYFTNEELTDEQKSLIEWYRDVFRPEDLRLVESVQKGLKSRGYRGQGRIMADSSGSGISEHGIAHFHNLLAQVFKD [P0ABR7]						0.182						
MKLFYKPGACSLASHITLRESGKDFTLVSVDLMKKRLENGDDYFAVNPKGQVPALLLDDGTLLTEGVAIMQYLADSVPDRQLLAPVNSISRYKTIEWLNYIATELHKGFTPLFRPDTPEEYKPTVRAQLEKKLQYVNEALKDEHWICGQRFTIADAYLFTVLRWAYAVKLNLEGLEHIAAFMQRMAERPEVQDALSAEGLK [P0A9D2]	4.9 ± 0.3	5.74 ± 1.9	4.81 ± 0.22	6.34 ± 1.4	4.64 ± 0.58	2.84 ± 0.23	5.69 ± 0.32	11.6 ± 2.5	4.81 ± 0.2	5.44 ± 0.29	9.9 ± 0.87	10.6 ± 0.74
MKSSTTIITAYFDIGRGDWTANKGFREKLARSVDVYFSYFERLAALENEMIIFTSPDLKPRVEAIRNGKPTTVIVIDIKKKFRYIRSRIEKIQKDESFTNRLEPRQLKNPEYWSPEYVLVCNLKAYFVNKAINMGLVKTPLVAWIDFGYCHKPNVTRGLKIWDFPFDESKMHLFTIKKGLTVTSQQQVFDFMIGNHVYIIGGAIVGSQHKWKEFYKLVLESQKITLNNNIVDDDQGIFVMCYYKRPDLFNLNYLGRGKWFDLFRCFRSNTLGAKMQALRIFLSRK	6.61 ± 0.098	6.18 ± 0.28	5.99 ± 0.11	6.49 ± 0.38	5.52 ± 0.26	2.82 ± 0.13	5.548 ± 0.042	10.7 ± 0.57	5.82 ± 0.57	5.85 ± 0.86	11.6 ± 0.62	11.4 ± 0.17
MTQQITLIKDKILSDNYFTLHNITYDLTRKDGEVIRHKREVYDRGNGATILLYNTKKKTVVLIRQFRVATWVNGNESGQLIESCAGLLDNDEPEVCIRKEAIEETGYEVGEVRKLFELYMSPGGVTELIHFFIAEYSDNQRANAGGGVEDEDIEVLELPFSQALEMIKTGEIRDGKTVLLLNYLQTSHLMD	4.25	3.023 ± 0.017	2.96 ± 0.066	4.03 ± 0.41	3.07 ± 1	2.824 ± 0.026	4.44	6.27 ± 2.4	3.15 ± 0.25	2.31	4.71	4.47 ± 0.2
